Patent publication US20090246191A1

Legend:
[1] = target: Aβ40 monomer (wild-type amyloid β peptide 1-40) (Artificial)
[2] = target: soluble cross-linked β-amyloid protein species (CAPS) prepared from Aβ40 (Artificial); assay: EuLISA, plate-immobilised CAPS
[3] = target: Aβ40 monomer (wild-type amyloid β peptide 1-40) (Artificial); assay: EuLISA, plate-immobilised wild-type Aβ40 monomer
[4] = target: Aβ40 fibrils (Artificial); assay: EuLISA, plate-immobilised Aβ40 fibrils
[5] = target: LC (Jto) fibrils, formed from recombinant Vλ6 Jto; assay: EuLISA, plate-immobilised LC fibrils
[6] = target: F19P Aβ40 monomer (Artificial); assay: EuLISA, plate-immobilised F19P Aβ40 monomer (value in brackets)

Row | formation of SDS stable cross-linked Aβ40 oligomers (SDS PAGE) [1] | EC50 [2] | EC50 [3] | EC50 [4] | EC50 [5] | EC50 [6] | Substance
1 | 65% |  |  |  |  |  | ImmunoPure Horseradish peroxidase (HRP) (from UniProt P00433) (enzyme)
2 |  | 631 nM | 861 nM | 1080 nM | 1510 nM | 3670 nM | unfractionated IGIV (Gammagard Liquid, human immune globulin intravenous) (polyclonal serum or antibody)
